Data as given in paper PMC3842668, “Dual-acting stapled peptides target both HIV-1 entry and assembly” (Retrovirology, 2013).
Where no end group is shown, it is not given here.

Experiments:
NYAD-36 = assay: ITC; conditions: both partners purified
NYAD-67 = assay: ITC; conditions: both partners purified

## CTRPNYNKRKRIHIGPGRAFYTTKNIIGTIRQAHC (also: cyclic (mode not given here)) [full-length cyclic V3 loop peptide]
NYAD-36
  Kd: 350 ± 30 nM
NYAD-67
  Kd: 990 ± 40 nM
